Results: article PMC11100570 (Science Advances, 2024)

B1: GST-Doc2B 13 to 80 (Mid-L) (domain or fragment, mouse, UniProt P70169 13-80, looked up)
chain: SIQEHMAIDVCPGPIRPIKQISDYFPRFPRGLPPTAAPRAPAPPDAPARSPAASASPRSPSDGARDDD
B2: GST-Doc2B FL (full-length Doc2B, residues 1 to 412) (natural protein, mouse, UniProt P70169 1-412, looked up)
chain: MTLRRRGEKATISIQEHMAIDVCPGPIRPIKQISDYFPRFPRGLPPTAAPRAPAPPDAPARSPAASASPRSPSDGARDDDEDVDQLFGAYGASPGPSPGPSPARPPAKPPEDEPDVDGYESDDCTALGTLDFSLLYDQENNALHCTISKAKGLKPMDHNGLADPYVKLHLLPGASKANKLRTKTLRNTLNPSWNETLTYYGITDEDMVRKTLRISVCDEDKFRHNEFIGETRVPLKKLKPNHTKTFSICLEKQLPVDKAEDKSLEERGRILISLKYSSQKQGLLVGIVRCAHLAAMDANGYSDPYVKTYLKPDVDKKSKHKTAVKKKTLNPEFNEEFCYEIKHGDLAKKTLEVTVWDYDIGKSNDFIGGVVLGINAKGERLKHWFDCLKNKDKRIERWHTLTNELPGAVLSD

Assays:
[1] = molecular target: Munc13-1 MUN domain (residues 933 to 1407, EF, 1453 to 1531) (rat, UniProt Q62768 933-1407; Q62768 1453-1531); test: ITC
MUN W1165A = MUN W1165A (rat, UniProt Q62768 933-1407; Q62768 1453-1531, W1165A); test: pull-down

Binder | fold change of the dissociation constant against Doc2B (13 to 37) [1] | stoichiometry N [1] | binding result (MUN W1165A)
B1 | 10 fold |  | 
B2 | 10 fold | 1 | binds
